Measured values published in PMC10853779.

Molecular target: T1, phosphorylated NarL (E. coli nitrate-responsive transcription regulator), wild type (E. coli K12), P0AF28
T1 chain: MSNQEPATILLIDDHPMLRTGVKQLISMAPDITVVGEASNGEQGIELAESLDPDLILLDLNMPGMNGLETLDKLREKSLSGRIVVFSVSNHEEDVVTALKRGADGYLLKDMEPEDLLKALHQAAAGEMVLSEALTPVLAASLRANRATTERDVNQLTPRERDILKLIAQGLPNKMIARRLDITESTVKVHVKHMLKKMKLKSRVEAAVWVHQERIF
Test: cryo-EM structure
Details: remark: other sources report otherwise

B1: phosphorylated NarL (E. coli nitrate-responsive transcription regulator), wild type, P0AF28 1-216 (natural protein)
chain: MSNQEPATILLIDDHPMLRTGVKQLISMAPDITVVGEASNGEQGIELAESLDPDLILLDLNMPGMNGLETLDKLREKSLSGRIVVFSVSNHEEDVVTALKRGADGYLLKDMEPEDLLKALHQAAAGEMVLSEALTPVLAASLRANRATTERDVNQLTPRERDILKLIAQGLPNKMIARRLDITESTVKVHVKHMLKKMKLKSRVEAAVWVHQERIF
stoichiometry N: 2
